In the supplement of paper PMC12042874:
± gives the uncertainty stated by the source.

Assay: amyloid nucleation score (Sup35N fusion, yeast selection) (log enrichment); library NNK1; higher = more nucleation; inactive = no reads after selection
Method in brief: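 DiMSum was used to calculate nucleation scores as log enrichment of output over input reads, centred on the mode score of non-aggregating sequences. Sequences with fewer than 100 input reads were not scored. Input and output came from Illumina sequencing of plasmid inserts in psi-negative yeast expressing peptides of 20 random codons fused to Sup35N, induced 24 hours with 100 μM copper sulfate and then grown 7 days at 30°C on medium lacking adenine and uracil.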

Substance | amyloid nucleation score
CHGCLGG | -0.312 ± 1.5
CHGKESRTVREVHDLLVYVS | -0.408 ± 0.78
CHLNFMCWPTAQDENMPIFG | -0.09 ± 0.31
CHVIIVQRYFMSVTLSQCWW | 0.489 ± 0.24
CHWSCRSEVMPESVTDAGGW | -0.072 ± 0.67
CIDDFSNFVRNVGAFGEYSF | -0.752 ± 0.53
CIIMCLRSDPV | 0.211 ± 0.3
CIIVNMFYWALFYFGSEMFS | 0.738 ± 0.53
CIKNSLRRYMCAYFSWGRRG | -0.744 ± 1.2
CIMMRHMVSYEADLRTMFLN | 3.58 ± 0.18
CIRMVRGSTGSTVNMSSRCS | 0.347 ± 0.27
CISLTCVVYGSML | 7.213 ± 0.048
CITTVPHQPMVLWTICFPTM | 0.614 ± 0.95
CKSGDLSECCRIWHRWA | 0.048 ± 0.27
CKVLCYIAYTWNLDCTEFEG | 6.449 ± 0.063
CLAFQLDWLRMGLFKSMEGT | -0.384 ± 0.35
CLEVGFVCWNCNRLFKCLCQ | 1.1 ± 0.56
CLFSWD | 0.118 ± 0.3
CLGYGYSSEDTQTSLCSGVE | -0.642 ± 1
CLILTRCVSYGRPMTACLVL | 0.16 ± 0.56
CLKLDNMTRLVTNGTLGSAS | inactive
CLLLVMTVTGGGSVTMLSQM | -0.078 ± 0.32
CLNWVCRRFWVSITHFWAWV | 0.066 ± 0.51
CLQFSVEARRLLKLNVGALE | 2.29 ± 0.13
CLQWPEYPDYSVGGAFRRTG | -0.311 ± 0.48
CLVHVRVSHNWDVTMMFGVR | 0.555 ± 0.24

Substance | amyloid nucleation score
CLYICIMGRIDAISSHSQII | 0.453 ± 0.43
CLYPVLQVPMCGNMAERQGV | 0.074 ± 0.69
CMILFTNRQRVMRLVLCLSD | 0.044 ± 0.49
CMYALT | 0.015 ± 0.39
CNLIYCTFDYLNFWDYYTID | 6.64 ± 0.054
CNLSNVSLLFRYELLISGSY | 0.748 ± 0.35
CNRPGF | -0.249 ± 0.44
CNWPDLDLSNRKWNPMKSML | 0.146 ± 0.69
CNYSSSTVGYRSDMRVCSDT | 0.405 ± 0.61
CPITWNFLCGIVLIEYYRVV | 7.04 ± 0.087
CPWTVMLHFSYDYCARGFKV | -0.505 ± 0.57
CQDGLDNLNCGAMVYFVVGD | 2.25 ± 0.22
CQISI | -2.17 ± 2.4
CQSKYYIMRACCFMATLWYW | -0.475 ± 0.47
CQYVFVCRHFFLGKNHEALE | -0.462 ± 0.86
CRCTVNHVMVRLSRGCRDAH | inactive
CRLCLRKHLSVISSSAEYLP | inactive
CRSSHE | 0.109 ± 1.4
CRSVCGRIS | 0.177 ± 0.77
CRSYNYLIVMKDLLPSALKT | 1.23 ± 0.36
CRYFSSSSGEAGQIFVVICG | -0.201 ± 0.67
CRYSACAKRMSSFCRVRMCL | 0.194 ± 0.66
CRYYRCSQKLDKLVTFTKKS | 0.722 ± 0.49
CSCYAM | 3.25 ± 0.19
CSCYQALKLA | -0.49 ± 0.88
CSDCARIGLMSRCGDETW | 0.132 ± 0.28

Substance | amyloid nucleation score
CSDRVKTLSFCWSPSVVFW | -0.636 ± 0.95
CSFGQIPCNLDQTGLLRARG | 1.1 ± 0.55
CSFLRFQIVMCCRLLDRVLC | 1.72 ± 0.63
CSFMCLARLVSYQIESLW | -0.062 ± 1.2
CSGCYPRLCESMLNGNSGYV | 1.31 ± 0.31
CSGMMARPWIYLVGVYKISN | 2.26 ± 0.17
CSKRTTYYFPWFICELTRLV | -0.195 ± 0.6
CSNLQLAHKRRISNWSNLWC | -0.029 ± 0.98
CSSVAS | 0.113 ± 0.31
CSYDNVPDLFC | 0.582 ± 0.68
CSYQNCLVN | -0.795 ± 0.29
CTIILL | 2.78 ± 0.14
CTNATVPASSTERV | 1.55 ± 0.5
CTSCQYKCNCWGCVRYQTWF | 2.41 ± 0.27
CTSPLVLIHKYYYVMVAVHS | 0.821 ± 0.55
CTVKLLMCQAISLTCSLGFF | 0.534 ± 0.56
CTVLRRFIRYHTITVYMWL | 0.257 ± 0.75
CVAWNIDW | 0.069 ± 0.76
CVFGYCVALHF | 6.18 ± 0.073
CVFRSYWVCLWSDNNGDVR | 8.325 ± 0.07
CVGSIKVNSLSRLFCHLLCV | -0.187 ± 1.2
CVGVWVRFLTQQCSTHKQYE | -0.116 ± 1.2
CVHYLYEILQGILLNYSFLL | -0.737 ± 0.4
CVLPFGLSSG | 0.483 ± 0.48
CVNFFGCHCVHN | 7.735 ± 0.069
CVSCVSGILFEMCPSSFPNQ | -0.578 ± 0.9

Substance | amyloid nucleation score
CVTANRHDENITSLLWRIVQ | -2.36 ± 2.4
CVVWAEVRVR | -0.419 ± 0.79
CVWFFLFPVQAITLFDLESV | -0.033 ± 0.74
CVYVSMLH | -0.483 ± 0.85
CWTSFYDC | 0.448 ± 0.49
CYALNWCRLPALHSFFQCRK | 0.853 ± 0.65
CYAPSFWTYWCLCSCMVDPN | 5.8 ± 0.081
CYDQKILLLLISVTYVRTSD | -0.34 ± 1
CYFCYQGYMID | -0.537 ± 0.33
CYLCSSSF | 1.67 ± 0.24
CYLSNLAMSHSCMHYALTAA | -0.713 ± 1.4
CYMYFWNRVDFT | 0.581 ± 0.17
CYRPFSQNLPSVMLEFILAE | 0.146 ± 0.27
CYSKKVLHCFKTSCLTLQVT | 1.27 ± 0.42
CYVHEFMDEPSRSNGDGVWC | -0.512 ± 1.2
CYYLFLHSCSYARGIFC | -0.366 ± 0.52
DAADMTGLFNRLLCVFEYVW | 0.797 ± 0.66
DAASHYINLCNHSAEFSKVG | 1.42 ± 0.53
DAGMH | 0.189 ± 0.3
DAHAISINHYRLSQTLSVPW | -0.148 ± 0.35
DAILLHYSNDMLYSYYRRVG | -0.937 ± 0.65
DALWKVFKDWLGGADQRGFP | 0.29 ± 0.78
DATTTLFL | -0.281 ± 0.77
DAVSGGVFNCVLFNKVLSLM | -0.597 ± 0.32
DAVSYNSPGGELYDLFNLTA | -0.994 ± 0.97
DAYVLD | 0.314 ± 0.34

Substance | amyloid nucleation score
DCFARVLLTMRYLKGVVYTE | 1.13 ± 0.27
DCFYLSIGRIFFHP | 2.92 ± 0.21
DCIACRECSMTSKLLGGLGT | 0.859 ± 0.39
DCKAYSIRSNV | 0.705 ± 0.36
DDKITSLLVMSRDKVKPMSD | inactive
DDLTVMVGPYMGGS | -0.82 ± 1.1
DDMCFLN | 0.797 ± 0.34
DDRVSQLAWGLCAVSYARLE | 0.681 ± 0.54
DDSGRL | 0.494 ± 0.59
DDTIFLMRAIMVFNLICWCV | inactive
DDVVWNYSTA | -0.487 ± 0.58
DEDERWCLDIVG | -0.076 ± 0.37
DEFSFDSSLLMLFGAGYGV | 0.932 ± 0.62
DFCFPSNVRGLDCGGSKGYR | inactive
DFCLNGSYFNTLDNSGCSSL | -0.114 ± 0.52
DFENWPVRLWYFKTIFLRS | 1.93 ± 0.51
DFILLVVLYFVLYFFTCMVL | 0.22 ± 0.72
DFRKDWYWESPASRFFTNEV | 0.44 ± 0.53
DFSVQKSGSYQTEHYLVFRN | -0.12 ± 0.21
DFVETEFRLRRD | inactive
DGAYWELSY | -0.506 ± 0.27
DGEFRRDSSCVGVEERVVLV | 0.551 ± 1.2
DGELMAYLSDGNQG | inactive
